From patent US20160252495A1 (UNIVERSITY OF BRITISH COLUMBIA, published 2016) come the findings set out here.

This assay has as its target T1, hen egg white lysozyme (hen, UniProt P00698 19-147).
T1 construct: also called HEL; hen-egg lysozyme
Description: affinity measurements by microfluidic screening.

T1 sequence (P00698 19-147 limits assumed): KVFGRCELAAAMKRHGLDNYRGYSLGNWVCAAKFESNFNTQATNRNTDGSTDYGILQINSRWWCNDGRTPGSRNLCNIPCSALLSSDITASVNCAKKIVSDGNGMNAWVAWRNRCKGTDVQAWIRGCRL

B1: Mm20 mouse anti-hen egg lysozyme antibody (antibody, V domains shown)
VH: QVQLQQSGPELMKPGASVKISCKATGYTFRNYWIEWIKQRPGHGLEWIGEILPESGSINYNEKFKGKATFTADTSSNTAYLQLRSLTSEDSAVYYCFYDNYVFDYWGQGTTL
VL: QIVLIQSPTIMSASPGEKVTMTCSANSSFSYMHWYQQKSGTSPKRWIYDTSKLASGVPARFSGSGSGTSYSLTISSMEAEDAATYYCQQWSRNPTFGAGTKL
B1: the binding result is given as “binds”.
